# Experimental data reported in the DeepSol protein solubility set.
# Test: soluble on expression in E. coli; label from the status in PepcDB or PDB records
row,Sequence,soluble on expression in E. coli
1,MSLGSGHMIGVDVGETRVRVELFDLSLAELARTERPLAHKGRQAYDVGVIVGHIRDGVAEVLAAAGITAGELLGVGIGVPGIVERSGEGGAVVHGQTIGWDAVPLEHMLRLSGQLPEHVPYFIDNGAKTLGQAEMWFGAGRGAHNAVVVLFGSGVGACVVTDEVEHGRAVEWGHLTVRVQGRRCRCGALGCLEAYAGAEALLARWQEAGGQPPYDTDEETALTAMLAAAYPEDGRAPDPVAAAVLAETAEYLGAGLSDLINLFQPERILVGGWAGLQLGSRFLESVRTHALAYALRYPAGRVGIELGRLGPDAVTVGAAILPLADFFAHGGRRAEGHHHHHH,soluble
2,MNRTALVLGCLLVATPALAQSVTEKTGVNSVLGIAPTTPDFVKQVAISDMFEIQSNQLAERKGNAAQQAFAKQMIADHTKTSSELKAMVSDGKVKAELPTALDSAHQSKLDKLKNANGAEFSETFDEQQVSAHKDAVSLFERYAKGGDNDALKKWAGTTLPKLQHHLEMAQQLERDRTNTTSESKAKK,not soluble
3,MPRLDLCAKRTTDQCTSRVRLATRKGLTKLLLCSRESSIFKDEDIEQDDLRSSRTPWAALPPPPIKPIADSFRCDALVIGAGITGALVAERLTRQGRQVVIIDRELPSLGSTVASTAMLLWETDRPLFELAQLYNFEKAVRCYRASHHAARGLLALVTDHGIACQMRPRLSLYLAVDDSPKLVRNEYALRSRADLPTLFLDRVELLNRFGIARAGALLSRDAADADPVRLTRGLLDVSLQRGARLLKANAVAYDSAASTVTVGLENGLSIEARHVVLATGYVMPNIVGSTSNQPASSWAIATRRRPNALWPEQALIWEATRNYHYARTTPDGRVIFGGEDDDAIIDPEARAAATPAKVRALKERLKALWPRASTEVAFTWSGAFDTTRDGLPLIGAVPGYRNILAAFGYGGNGITFSFLAAELLGTLLSGGSSPLLDVLALDRDLPANDAPSDSQALEHHHHHH,soluble
4,MSLKQYKILLIVADGLGDRPVSKLNGLTPLEAANKPAITDLLKNSMIGLMDPISPGIIPGSDTSHLSIFGLDPHVYYRGRGAFEALGAGATLSHGDVAFRGNFATVNNDLVVVDRRAGRKLEEGEQLVKELNEKIKEINDVKIKFYKGTEHRIAVVLSGKGISDKVSDTDPHHEGLKVLESKPLEDSNEAIRTAEIINILTRKVFDVLNSSEINKRRIEQGEKPANIVLLRGAAHYVKLPPFSSYTKLKAAAVSATALIKGICRELGMNVITPSGATGGIDTNYNAKAKAAIELLKENDFVFLHIKATDAASHDGLVEEKVKAIERIDRVIGAIIDNIGRDNLILMFTGDHVTPVEIKEHTGDPVPVLLYVPYPIINDNVGDFNEKEARKGSLRIRGLDVTNILLNYSNRAEKYGSEGHHHHHH,soluble
5,MSLRTMLTQKFVVDSMLGKIARWLRIMGYDTLYSNDFEDWKILKIAETQKRIIITRDRGIYYRSLKRGLNCILLSPDSNIIQDLAFIALRSKIDLSVNINATRCPQCNSVLSKLSESMWLCPKCKKEYWKGRHWRTIEEIIIKANSELVKLETKNDSRGTGTDTGVKRRDRTVTNRNSEGHHHHHH,soluble
6,MGHHHHHHSHMGEGQIPPAHDSSIFISCDVLLKKISINTRTWLPCSISCSASLLENSPFYFTLFVCDYISHSFHLLINIFSEIMSYHGNGGYNAPYGGHGGYAPPPVHGAPGYMPPTVVHTDGGHHGHVDTHHHEESHHGEHHGGHHGVQHYESHHESHHHGGHHGHH,not soluble
7,MGSDKIHHHHHHMSYRLNIENLREFMSETSDSCEHLVFPQKRGIYRAQKEWIASGITLFKCTLRAEDEVVIEQKESAFFGGAFIHVVLEGGVSFETSQPKGSFEYRRGYTTAMEALHPSGITRVARGVSVHSIGIHIHEDFLRSREIEWKKIAKEPRLLPSNPKVEWIAKSLYQGRGGAQSDADRLRVESQILEILSCELQREETRGGMERVKLSGYDLEALHKARVILEQNLKNPPSLIELSRAIHLNEFKLKFGFKRLFGVAPYEMLFLFRMQRARGLLEEGIFSVGEVAKEVGYAQQSSFSAAFFRHFGVLPKEVAKSWKD,not soluble
8,MAAQVTLEDALSNVDLLEELPLPDQQPCIEPPPSSLLYQPNFNTNFEDRNAFVTGIARYIEQATVHSSMNEMLEEGQEYAVMLYTWRSCSRAIPQVKCNEQPNRVEIYEKTVEVLEPEVTKLMNFMYFQRNAIERFCGEVRRLCHAERRKDFVSEAYLITLGKFINMFAVLDELKNMKCSVKNDHSAYKRAAQFLRKMADPQSIQESQNLSMFLANHNKITQSLQQQLEVISGYEELLADIVNLCVDYYENRMYLTPSEKHMLLKVMGFGLYLMDGSVSNIYKLDAKKRINLSKIDKYFKQLQVVPLFGDMQIELARYIKTSAHYEENKSRWTCTSSGSSPQYNICEQMIQIREDHMRFISELARYSNSEVVTGSGRQEAQKTDAEYRKLFDLALQGLQLLSQWSAHVMEVYSWKLVHPTDKYSNKDCPDSAEEYERATRYNYTSEEKFALVEVIAMIKGLQVLMGRMESVFNHAIRHTVYAALQDFSQVTLREPLRQAIKKKKNVIQSVLQAIRKTVCDWETGHEPFNDPALRGEKDPKSGFDIKVPRRAVGPSSTQLYMVRTMLESLIADKSGSKKTLRSSLEGPTILDIEKFHRESFFYTHLINFSETLQQCCDLSQLWFREFFLELTMGRRIQFPIEMSMPWILTDHILETKEASMMEYVLYSLDLYNDSAHYALTRFNKQFLYDEIEAEVNLCFDQFVYKLADQIFAYYKVMAGSLLLDKRLRSECKNQGATIHLPPSNRYETLLKQRHVQLLGRSIDLNRLITQRVSAAMYKSLELAIGRFESEDLTSIVELDGLLEINRMTHKLLSRYLTLDGFDAMFREANHNVSAPYGRITLHVFWELNYDFLPNYCYNGSTNRFVRTVLPFSQEFQRDKQPNAQPQYLHGSKALNLAYSSIYGSYRNFVGPPHFQVICRLLGYQGIAVVMEELLKVVKSLLQGTILQYVKTLMEVMPKICRLPRHEYGSPGILEFFHHQLKDIVEYAELKTVCFQNLREVGNAILFCLLIEQSLSLEEVCDLLHAAPFQNILPRVHVKEGERLDAKMKRLESKYAPLHLVPLIERLGTPQQIAIAREGDLLTKERLCCGLSMFEVILTRIRSFLDDPIWRGPLPSNGVMHVDECVEFHRLWSAMQFVYCIPVGTHEFTVEQCFGDGLHWAGCMIIVLLGQQRRFAVLDFCYHLLKVQKHDGKDEIIKNVPLKKMVERIRKFQILNDEIITILDKYLKSGDGEGTPVEHVRCFQPPIHQSLASS,not soluble
9,MSLTAQIRLAEPADLNDDTLRARAVAAARGDQRFDVLITGGTLVDVVTGELRPADIGIVGALIASVHEPASRRDAAQVIDAGGAYVSPGLIDTHMHIESSMITPAAYAAAVVARGVTTIVWDPHEFGNVHGVDGVRWAAKAIENLPLRAILLAPSCVPSAPGLERGGADFDAAILADLLSWPEIGGIAEIMNMRGVIERDPRMSGIVQAGLAAEKLVCGHARGLKNADLNAFMAAGVSSDHELVSGEDLMAKLRAGLTIELRGSHDHLLPEFVAALNTLGHLPQTVTLCTDDVFPDDLLQGGGLDDVVRRLVRYGLKPEWALRAATLNAAQRLGRSDLGLIAAGRRADIVVFEDLNGFSARHVLASGRAVAEGGRMLVDIPTCDTTVLKGSMKLPLRMANDFLVKSQGAKVRLATIDRPRFTQWGETEADVKDGFVVPPEGATMISVTHRHGMAEPTTKTGFLTGWGRWNGAFATTVSHDSHNLTVFGGNAGDMALAANAVIGTGGGMAVASEGKVTAILPLPLSGLVSDAPLEEVARAFEDLREAVGKVVEWQPPYLVFKACFGATLACNIGPHQTDMGIADVLTGKVMESPVIEVLGEGHHHHHH,soluble
10,MKQRPIPRPQTDTTAALQALADALACLRNSATVLAFLRDLCTPAELEALADRWRVVPLLLQGRPYRDIHDHTGISVTTIGRVARCLEHGTGGYAAVLQAQAMPPASSIEKPQ,not soluble
11,RRQHQHLLESLVHSTAKQQGDFTKTAELATELLCQNLAVSLVSIWIFSADQGTQSLVAQFGSMALQDTYRPSLLHTVPRYLNELKNYRHIDAGNTLIDPRLTELVDSYFIPRQILSSLDVGIRINGHLEGVLCIERAQVTHHWHDSEIHLACQMADQLALTLATKHAYDKEERLSLFRCAIEQSRQMSM,not soluble
12,MDFKQYSPEELKECSMIEVVHSVLGDKKQATTFNELVQEIAQVLGLSQEQVNAKIAQFYTDLNIDGRFINLGENRWGLRSWYPYEQIDEEILPQPKPKKKRKVEEDGFDDYIDEDEDDFDDVDGNEDEDDDVEDLDKVLEDEDGDDDDLDDLDEDEDDFAEEELEYDETEEEEEEEL,not soluble
13,SAPVEHVVADAGAFLRHAALQDIGKNIYTIREVVTEIRDKATRRRLAVLPYELRFKEPLPEYVRLVTEFSKKTGDYPSLSATDIQVLALTYQLEAEFVGVSHLKQEPQKVKVSSSIQHPETPLHISGFHLPYKPKPPQETEKGHSACEPENLEFSSFMFWRNPLPNIDHELQELLIDRGEDVPSEEEEEEENGFEDRKDDSDDDGGGWITPSNIKQIQQELEQCDVPEDVRVGCLTTDFAMQNVLLQMGLHVLAVNGMLIREARSYILRCHGCFKTTSDMSRVFCSHCGNKTLKKVSVTVSDDGTLHMHFSRNPKVLNPRGLRYSLPTPKGGKYAINPHLTEDQRFPQLRLSQKARQKTNVFAPDYIAGVSPFVENDISSRSATLQVRDSTLGAGRRRLNPNASRKKFVKKR,soluble
14,MEQKTENKWPLQFEVIEEIKQVGRWSAPSWRLGDIHLYEKVNETQDNVSLFERDLEIFRDERTDYRFNLSSQDPKLFFAFENDNDQLTPVMITASQSMIGQYMDGDYLVLSTAMPLPMQAWLEAYIGKHGELLEVRKKKRKGAGRASEQLPK,not soluble
15,TDPDADRLGAAVRMPNGDYQVLTGNQLGSIMIHYILEAHQQAGTLPQNAAVLKSIVSSELATAIAEKCNTKMFNVLTGFKFIAEKIQQYEEDHSQTFMFGFEESYGYLVKPFVRDKDAIQALVLLAEVAAFYKKQGKTLYDGLQDIFEEFGYFEE,not soluble
16,MYDMINAKYLGKLIFLDFGQTITSLEETSDNSTFFIADEFGNFGSHYVGVVLEQVRSFNTVVILSYQSFANLRNIGGDNFKSQIINNTSTLIAHRLIDMMEAEEVANLYGVDITCASEIKSLKVGQALVRSISSYYGEIKDWLVQQIDKS,soluble
17,SNAMPMTLDLQPGQRLARGVARHLRAHGFVSVEEFVPARGLRVDVMGLGPKGEIWVIECKSSRADFQADAKWQGYLEWCDRYFWAVDMEFPAELLPAESGLLIADAYDAEIVRMAPEQKLAPARRKVLIQKFATHAARRLQALRDPEGHGIFE,soluble
18,MSDAAKPDRPDEALVLEYDFDAPPAKVWRAVTIPALRERWSPDCDLAGAEPESTIAGEEVRYRLRDSEPPFRESHVIFRIEPNEDGGTRFRIIQQACDDLAKLPQPANTNCRLMMAALEHHHHHH,soluble
19,MILLQLNHISKSFDGEDIFTDVDFEVKTGERIGIVGRNGAGKSTLMKIIAGVENYDSGNVSKIKNLKLGYLTQQMTLNSNATVFEEMSKPFEHIKRMESLIKEETDWLSKHANDYDSDTYKTHMSRYESLSNQFEQLEGYQYESKIKTVLYGLNFSEEDFNKPINDFSGGQKTRLSLAQMLLNEPDLLLLDEPTNHLDLETTKWLEDYLRYFKGAIVIISHDRYFLDKIVTQIYDVALGDVKRYVGNYEEFIQQRDLYYQKRMQEYESQQAEIKRLETFVEKNITRASTSGMAKSRRKILEKMERIDKPMLDAKSANIQFGFDRNTGNDVMHVKNLEIGYQTAITKPMSIEVSKGDHIAIIGPNGIGKSTLIKTIANQQKALNGDITFGANLQIGYYDQKQAEFKSSKTILDYVWDQYPLMNEKDIRAVLGRFLFVQDDVKKIINDLSGGEKARLLLALLMLQRDNVLILDEPTNHLDIDSKEMLEQALQHFEGTILFVSHDRYFINQLANKVFDLTIDGGKMYLGDYQYYIEKVEEAEALKAHQEEQSVNVQAHKKSMEQSSYHNQKEQRREQRKLERQISECENEIETLETTILQIDEQLTQPEVYNNPQKANELAIQKQDSEQKLEHAMSKWEELQQKL,not soluble
